Target: natural VIF protein on the surface of T1 human cells infected with HIV-1 strain IIIB (HIV-1 strain IIIB) (UniProt P69723)
Assay: flow cytometry on HIV-1 IIIB infected T1 cells, 1:100

Chain of UniProt P69723 (P69723 whole entry): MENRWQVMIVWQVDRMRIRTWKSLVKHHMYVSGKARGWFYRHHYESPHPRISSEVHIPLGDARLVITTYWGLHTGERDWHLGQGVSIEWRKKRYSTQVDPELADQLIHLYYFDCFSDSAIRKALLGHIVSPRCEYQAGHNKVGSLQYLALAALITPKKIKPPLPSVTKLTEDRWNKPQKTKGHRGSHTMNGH

Isotype control (antibody) gave an MFI of 971.
